Measurements taken from publication PMC9418484 (The Journal of Experimental Medicine, 2022).
Read-outs that look alike come from different tables or passages of the source.

Legend:
[1] = target: T1, SARS-CoV-2 Wuhan-Hu-1 receptor-binding domain (RBD), S protein residues 319-539 (SARS-CoV-2 Wuhan-Hu-1, UniProt P0DTC2); test: BLI; details: both partners purified
[2] = target: T1, SARS-CoV-2 Wuhan-Hu-1 receptor-binding …

Row | Binder | binding result [1] | binding result [2]
1 | C105 (antibody, V domains shown) VH: QVQLVESGGGLIQPGGSLRLSCAASGFTVSSNYMSWVRQAPGKGLEWVSVIYSGGSTYYADSVKGRFTISRDNSKNTLYLQMNSLRAEDTAVYYCARGEGWELPYDYWGQGTLVTVSS VL: QSALTQPPSASGSPGQSVTISCTGTSSDVGGYKYVSWYQQHPGKAPKLMIYEVSKRPSGVPDRFSGSKSGNTASLTVSGLQAEDEADYYCSSYEGSNNFVVFGGGTKLTVL | binds | –
2 | AZ229 (antibody, V domains shown) VH: EVQLVESGGGLVQPGGSLRLSCAASGFTFSSDDMHWVRQATGKGLEWVSAIGTSGDTYYSESVKGRFTISRDNAKSSLYLQMNSLRAGDTAVYYCARGRVYDGPTSDRHYYYYVMDLWGHGTTVAVSS VL: DIQMTQSPSSLSASVGDRVTITCRASQSINKYLNWYQQKPGKAPKLLIYAASSLQGGVPSRFSGSGSGTDFTLTITTLQPEDFATYYCQQSYSAPPWTFAQGTKVEIK | – | binds
3 | AZ090 IgG (antibody, V domains shown) VH: QVQLVQSGPEVKKPGTSVKVSCKASQFTFSISAVQWVRQARGQRLEWMGWIVVGSGNTDYAQRFQERVTISRDMSAGTVYMELRSLRSEDTAVYYCAAPYCNKTNCRDGFDMWGQGTMVTVSS VL: EIVLTQSPGTLSLSPGERATLSCRASQSVSSSYLAWYQQKPGQAPRLLIYGASRRATGIPDRFSGSASGTDFILTISRLEPEDFAVYYCQQYRNSPWTFGQGTKVEIK | binds | –
